In US20210300999A1 (VANDERBILT UNIVERSITY, published 2021):

Columns and labels:
[1] = biological target: T1, SARS-CoV-2 spike (S) glycoprotein on virus (neutralization assays) (SARS-CoV-2, UniProt P0DTC2 14-1273); experiment: cell-based or functional assay
[2] = biological target: T1, SARS-CoV-2 spike (S) glycoprotein on …; experiment: cell-based or functional assay; remark: listed apart in the source
SARS-CoV-2 NTD (Table A) = biological target: T2, SARS-CoV-2 NTD (Table A) (SARS-CoV-2, UniProt P0DTC2 14-305); experiment: ELISA, purified IgG
T2 construct: domain: NTD

[3] = biological target: T3, SARS-CoV-2 S receptor-binding domain (SRBD), residues 319-541 (SARS-CoV-2, UniProt P0DTC2 319-541); experiment: ELISA on coated antigen
T3 construct: range 319-541

[4] = biological target: SARS-CoV Spike trimer (Table A) (SARS-CoV, UniProt P59594 14-1190); experiment: ELISA, purified IgG
SARS-CoV-2 RBD (Table A) = biological target: T4, SARS-CoV-2 RBD (Table A) (SARS-CoV-2, UniProt P0DTC2 319-541); experiment: ELISA, purified IgG
T4 construct: domain: RBD

Binder	Neutralization IC50, ng/mL (FRNT, authentic SARS-CoV-2) [1]	Nano-luciferase virus reduction test, SARS-CoV-2, IC50 [2]	SARS-CoV-2 focus reduction test, IC50 [2]	ELISA OD 450 nm (SARS-CoV-2 NTD (Table A))	EC50 [3]	ELISA OD 450 nm [4]	ELISA OD 450 nm (SARS-CoV-2 RBD (Table A))
COV2-2096 (antibody, V domains shown) VH: QVQLVQSGAEVKKPGASVKVSCKASGYTFGSFDINWVRQATGQGLEWMGRMNSNSGNTAYAQKFQGRVTMTRDTSTNTAYMELSSLRSEDTAMYYCARMRSGWPTHGRPDDFWGRGTLVTVSS VL: QSVLTQAPSASGTPGQRVTISCSGSNSNIGSYTINWYQQLPGTAPKLLIYGNDQRTSGVPDRFSGSKFGTSASLAISGLQSEDENNYYCAVWDDSLNGLVFGGGTKLTVL	59 ng/mL	< 0.2 µg/mL	0.29 µg/mL	0.12 OD 450 nm	–	–	–
COV2-2391 (antibody, V domains shown) VH: QVQLVQSGAEVKKPGASVKVSCKASGYTFGSFDINWVRQATGQGLEWMGRMNSNSGNTAYAQKFQGRVTMTRDTSTNTAYMELSSLRSEDTAMYYCARMRSGWPTHGRPDDFWGRGTLVTVSS VL: QSVLTQAPSASGTPGQRVTISCSGSNSNIGSYTINWYQQLPGTAPKLLIYGNDQRTSGVPDRFSGSKFGTSASLAISGLQSEDENNYYCAVWDDSLNGLVFGGGTKLTVL	–	–	0.045 µg/mL	0.1 OD 450 nm	–	–	–
COV2-2952 (antibody, V domains shown) VH: EVQLVESGGGLVQPGGSLRLSCAASGLTVRSNYMTWVRQTPGKGLEWVSVIYSGGSTFYADSVKGRFTISRDNSKNTVYLQMNSLRAEDTAVYYCARDLVTYGLDVWGQGTTVTVSS VL: DIQLTQSPSFLSASVGDRVTITCRASQGISNYLAWYQQKPGTAPNLLIYAASTLQSGVPSRFSGSGSGTEFTLTISSLQPEDFATYYCQLLNSHPLTFGQGTRLEIK	–	–	0.089 µg/mL	0.1 OD 450 nm	–	–	–
COV2-2165 (antibody, V domains shown) VH: EVQLVESGGGLVQPGGSLRLSCAASGLTVRSNYMTWVRQTPGKGLEWVSVIYSGGSTFYADSVKGRFTISRDNSKNTVYLQMNSLRAEDTAVYYCARDLVTYGLDVWGQGTTVTVSS VL: DIQLTQSPSFLSASVGDRVTITCRASQGISNYLAWYQQKPGTAPNLLIYAASTLQSGVPSRFSGSGSGTEFTLTISSLQPEDFATYYCQLLNSHPLTFGQGTRLEIK	332 ng/mL	< 0.4 µg/mL	0.185 µg/mL	0.05 OD 450 nm	–	–	–
COV2-2838 (antibody, V domains shown) VH: QMQLVQSGPEVKKPGTSVKVSCKASGFTFMSSAVQWVRQARGQRLEWIGWIVIGSGNTNYAQKFQERVTITRDMSTSTAYMELSSLRSEDTAVYYCAAPYCSSISCNDGFDIWGQGTMVTVSS VL: not shown	–	–	0.014 µg/mL	0.12 OD 450 nm	–	–	–
COV2-2196 (antibody, V domains shown, also called mAb COV2-2196) VH: QMQLVQSGPEVKKPGTSVKVSCKASGFTFMSSAVQWVRQARGQRLEWIGWIVIGSGNTNYAQKFQERVTITRDMSTSTAYMELSSLRSEDTAVYYCAAPYCSSISCNDGFDIWGQGTMVTVSS VL: not shown	15 ng/mL	< 0.1 µg/mL	0.029 µg/mL	0.05 OD 450 nm	–	–	–
COV2-3025 (antibody, V domains shown) VH: EVQLVQSGPEVKKPGTSVKVSCKASGFTFMSSAVQWVRQARGQRLEWIGWIVIGSGNTNYAQKFQERVTITRDMSTSTAYMELSSLRSEDTAVYYCAAPYCSSISCNDGFDIWGQGTMVTVSS VL: EIVLTQSPGTLSLSPGERVTLSCRASQSVSSSYLAWYQQKPGQAPRLLIYGASSRATGIPDRFSGSGSGTDFTLTISRLEPEDFAVYYCQHYGSSRGWTFGQGTKVEIK	37 ng/mL	–	0.031 µg/mL	–	0.0011 µg/mL	0.21 OD 450 nm	3.7 OD 450 nm
COV2-2094 (antibody, V domains shown) VH: EVQLVESGGGVVRPGGSLRLSCAASGFIFDDYDMTWVRQAPGKGLEWVSGINWNGGSTGYADSVKGRFTISRDNAKNSLYLQMNSLRAEDTALYHCAVIMSPIPRYSGYDWAGDAFDIWGQGTMVTVSS VL: SSELTQDPAVSVALGQTVRITCQGDSLRSYYASWYQQKPGQVPILVIYDKNNRPSGIPDRFSGSSSGNTASLTITGAQAEDEADYYCNSRDSSGNAVVFGGGTKLTVL	154 ng/mL	< 0.05 µg/mL	0.151 µg/mL	0.1 OD 450 nm	0.0014 µg/mL	4.1 OD 450 nm	4.3 OD 450 nm
COV2-2514 (antibody, V domains shown) VH: EVQLVESGGGVVRPGGSLRLSCAASGFIFDDYDMTWVRQAPGKGLEWVSGINWNGGSTGYADSVKGRFTISRDNAKNSLYLQMNSLRAEDTALYHCAVIMSPIPRYSGYDWAGDAFDIWGQGTMVTVSS VL: SSELTQDPAVSVALGQTVRITCQGDSLRSYYASWYQQKPGQVPILVIYDKNNRPSGIPDRFSGSSSGNTASLTITGAQAEDEADYYCNSRDSSGNAVVFGGGTKLTVL	–	–	0.084 µg/mL	0.09 OD 450 nm	–	3.6 OD 450 nm	3.56 OD 450 nm
